T1: VEGF(8-109) (UniProt P15692 214-315)
T1 construct: range 8-109; Covalently coupled to the BIACORE chip (EDC/NHS); also called vascular endothelial growth factor
T1 sequence (looked up): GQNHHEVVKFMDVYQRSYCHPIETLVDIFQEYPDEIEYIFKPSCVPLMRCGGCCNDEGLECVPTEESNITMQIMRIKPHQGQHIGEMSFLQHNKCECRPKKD


Legend:
[1] = biological target: T1, VEGF(8-109); test: SPR (BIACORE-2000), Fab injected over immobilised VEGF(8-109), 25 C
Procedure: (§1) BIACORE™ Analysis: The VEGF-binding affinities of Fab fragments were calculated from association and dissociation rate constants measured using a BIACORE™-2000 surface plasmon resonance system (BIACORE™, Inc., Piscataway, N.J.). A biosensor chip was activated for covalent coupling of VEGF using N-ethyl-N′-(3-dimethylaminopropyl)-carbodiimide hydrochloride (EDC) and N-hydroxysuccinimide (NHS) according to the supplier's (BIACORE™, Inc., Piscataway, N.J.) instructions. VEGF(8-109) was buffered exchanged into 20 mM sodium acetate, pH 4.8 and diluted to approximately 50 μg/mL. Aliquots of VEGF were injected at a flow rate of 2 μL/min to achieve approximately 700-1400 response units (RU) of coupled protein. A solution of 1 M ethanolamine was injected as a blocking agent.
(§2) For kinetics measurements, two-fold serial dilutions of Fab were injected in PBS/TWEEN buffer (0.05% TWEEN 20™ in phosphate buffered saline) at 25° C. at a flow rate of 10 μL/min. Equilibrium dissociation constants, Kd's from SPR measurements were calculated as koff/kon (Table 17).

[2] = biological target: T1, VEGF(8-109); test: SPR (BIACORE-2000), Kd calculated as koff/kon
Procedure: as §1, §2

[3] = biological target: T1, VEGF(8-109); test: SPR (BIACORE-2000); reference (wt) is Y0192
Procedure: as §1, §2

[4] = biological target: T2, VEGF (recombinant; version 1-165) (UniProt P15692 27-191); test: cell-based or functional assay
T2 sequence (P15692 other isoform, or with tags, fused parts or gaps limits assumed): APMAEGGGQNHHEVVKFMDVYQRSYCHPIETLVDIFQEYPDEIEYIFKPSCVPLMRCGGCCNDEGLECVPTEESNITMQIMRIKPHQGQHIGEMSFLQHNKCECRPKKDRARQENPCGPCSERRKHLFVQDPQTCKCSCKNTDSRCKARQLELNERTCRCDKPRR

[5] = biological target: T2, VEGF (recombinant; version 1-165); test: cell-based or functional assay; remark: listed apart in the source

Binder | koff [1] | kon [1] | Kd [2] | Kd(wt)/Kd(mut) [3] | IC50 (read off the curve); VEGF-induced HuVEC growth, alamar blue [4] | inhibition of VEGF-induced growth of HuVECs (alamar blue assay) [5]
Y0239-19 Fab (Fab, V domains shown, also called insertion variant with the VNERK motif) VH: EVQLVESGGGLVQPGGSLRLSCAASGYTFTNYGMNWVRQAPGKGLEWVGWINTYTGEPTYAADFKRRFTFSLDTSKSTAYLQMNSLRAEDTAVYYCAKYPHYYVNERKSHWYFDVWGQGTL VL: DIQLTQSPSSLSASVGDRVTITCRANEQLSNYLNWYQQKPGKAPKVLIYFTSSLHSGVPSRFSGSGSGTDFTLTISSLQPEDFATYYCQQYSTVPWTFGQGTKVEIKR | ≤ 1e-05 s⁻¹ | 36000 M⁻¹ s⁻¹ | ≤ 0.3 nM | 9.7 ratio | – | –
Y0239-12 Fab (Fab, V domains shown) VH: EVQLVESGGGLVQPGGSLRLSCAASGYTFTNYGMNWVRQAPGKGLEWVGWINTYTGEPTYAADFKRRFTFSLDTSKSTAYLQMNSLRAEDTAVYYCAKYPHYYAHEKKSHWYFDVWGQGTL VL: DIQLTQSPSSLSASVGDRVTITCRANEQLSNYLNWYQQKPGKAPKVLIYFTSSLHSGVPSRFSGSGSGTDFTLTISSLQPEDFATYYCQQYSTVPWTFGQGTKVEIKR | 3.4e-05 s⁻¹ | 57000 M⁻¹ s⁻¹ | 0.6 nM | 4.8 ratio | – | –
Y0261-6 Fab (Fab, V domains shown) VH: EVQLVESGGGLVQPGGSLRLSCAASGYTFTNYGMNWVRQAPGKGLEWVGWINTYTGEPTYAADFKRRFTFSLDTSKSTAYLQMNSLRAEDTAVYYCAKYPHYYLKDKKSHWYFDVWGQGTL VL: DIQLTQSPSSLSASVGDRVTITCRANEQLSNYLNWYQQKPGKAPKVLIYFTSSLHSGVPSRFSGSGSGTDFTLTISSLQPEDFATYYCQQYSTVPWTFGQGTKVEIKR | 2.5e-05 s⁻¹ | 44000 M⁻¹ s⁻¹ | 0.6 nM | 5 ratio | – | –
Y0241-6 Fab (Fab, V domains shown, Clone from library YC-86, made on the Y0192 template; The text names point mutations only at T28 and F29; The printed stretch ends in GIN, so residue 34 may also differ from the parent; this change is not applied here) VH: EVQLVESGGGLVQPGGSLRLSCAASGYDYTNYGINWVRQAPGKGLEWVGWINTYTGEPTYAADFKRRFTFSLDTSKSTAYLQMNSLRAEDTAVYYCAKYPHYYGSSHWYFDVWGQGTL VL: DIQLTQSPSSLSASVGDRVTITCRANEQLSNYLNWYQQKPGKAPKVLIYFTSSLHSGVPSRFSGSGSGTDFTLTISSLQPEDFATYYCQQYSTVPWTFGQGTKVEIKR | 0.000129 s⁻¹ | 47000 M⁻¹ s⁻¹ | 2.7 nM | 1.1 ratio | – | –
Y0242-1 Fab (Fab, V domains shown, Clone from library YC-90, made on the Y0192 template; also called point mutant Y54W) VH: EVQLVESGGGLVQPGGSLRLSCAASGYTFTNYGMNWVRQAPGKGLEWVGWINTWTGEPTYAADFKRRFTFSLDTSKSTAYLQMNSLRAEDTAVYYCAKYPHYYGSSHWYFDVWGQGTL VL: DIQLTQSPSSLSASVGDRVTITCRANEQLSNYLNWYQQKPGKAPKVLIYFTSSLHSGVPSRFSGSGSGTDFTLTISSLQPEDFATYYCQQYSTVPWTFGQGTKVEIKR | 8.6e-05 s⁻¹ | 47000 M⁻¹ s⁻¹ | 1.8 nM | 1.6 ratio | – | –
Y0239-9 Fab (Fab, V domains shown, Only three residues stand in place of G104, although the library was designed with four or five) VH: EVQLVESGGGLVQPGGSLRLSCAASGYTFTNYGMNWVRQAPGKGLEWVGWINTYTGEPTYAADFKRRFTFSLDTSKSTAYLQMNSLRAEDTAVYYCAKYPHYYLGESSHWYFDVWGQGTL VL: DIQLTQSPSSLSASVGDRVTITCRANEQLSNYLNWYQQKPGKAPKVLIYFTSSLHSGVPSRFSGSGSGTDFTLTISSLQPEDFATYYCQQYSTVPWTFGQGTKVEIKR | 1.9e-05 s⁻¹ | 39700 M⁻¹ s⁻¹ | 0.5 nM | 6 ratio | – | –

The remaining binders from weak to strong by Kd [2], led by results:

koff [1] | kon [1] | Kd [2] | Kd(wt)/Kd(mut) [3] | IC50 (read off the curve); VEGF-induced HuVEC growth, alamar blue [4] | inhibition of VEGF-induced growth of HuVECs (alamar blue assay) [5] | Binder
0.000164 s⁻¹ | 36000 M⁻¹ s⁻¹ | 4.6 nM | 0.6 ratio | – | – | Y0239-2 Fab (Fab, V domains shown) VH: EVQLVESGGGLVQPGGSLRLSCAASGYTFTNYGMNWVRQAPGKGLEWVGWINTYTGEPTYAADFKRRFTFSLDTSKSTAYLQMNSLRAEDTAVYYCAKYPHYYKNDKSSHWYFDVWGQGTL VL: DIQLTQSPSSLSASVGDRVTITCRANEQLSNYLNWYQQKPGKAPKVLIYFTSSLHSGVPSRFSGSGSGTDFTLTISSLQPEDFATYYCQQYSTVPWTFGQGTKVEIKR
0.000128 s⁻¹ | 46000 M⁻¹ s⁻¹ | 3 nM | 1 ratio | – | – | Y0241-7 Fab (Fab, V domains shown, Clone from library YC-86, made on the Y0192 template; The text names point mutations only at T28 and F29; The printed stretch ends in GIN, so residue 34 may also differ from the parent; this change is not applied here) VH: EVQLVESGGGLVQPGGSLRLSCAASGYDWTNYGINWVRQAPGKGLEWVGWINTYTGEPTYAADFKRRFTFSLDTSKSTAYLQMNSLRAEDTAVYYCAKYPHYYGSSHWYFDVWGQGTL VL: DIQLTQSPSSLSASVGDRVTITCRANEQLSNYLNWYQQKPGKAPKVLIYFTSSLHSGVPSRFSGSGSGTDFTLTISSLQPEDFATYYCQQYSTVPWTFGQGTKVEIKR
1.3e-05 s⁻¹ | 25000 M⁻¹ s⁻¹ | 0.5 nM | 5.8 ratio | – | – | Y0240-1 Fab (Fab, V domains shown) VH: EVQLVESGGGLVQPGGSLRLSCAASGYTFTNYGMNWVRQAPGKGLEWVGWINTYTGEPTYAADFKRRFTFSLDTSKSTAYLQMNSLRAEDTAVYYCAKYPHYYLTDHKSHWYFDVWGQGTL VL: DIQLTQSPSSLSASVGDRVTITCRANEQLSNYLNWYQQKPGKAPKVLIYFTSSLHSGVPSRFSGSGSGTDFTLTISSLQPEDFATYYCQQYSTVPWTFGQGTKVEIKR
1.8e-05 s⁻¹ | 38000 M⁻¹ s⁻¹ | 0.5 nM | 5.8 ratio | – | – | Y0239-8 Fab (Fab, V domains shown) VH: EVQLVESGGGLVQPGGSLRLSCAASGYTFTNYGMNWVRQAPGKGLEWVGWINTYTGEPTYAADFKRRFTFSLDTSKSTAYLQMNSLRAEDTAVYYCAKYPHYYLRDGRSSHWYFDVWGQGTL VL: DIQLTQSPSSLSASVGDRVTITCRANEQLSNYLNWYQQKPGKAPKVLIYFTSSLHSGVPSRFSGSGSGTDFTLTISSLQPEDFATYYCQQYSTVPWTFGQGTKVEIKR
1.1e-05 s⁻¹ | 31100 M⁻¹ s⁻¹ | 0.36 nM | 8 ratio | ~3 ng/mL | ~100 fold | Y0313-2 Fab (Fab, V domains shown, Combines the CDR H3 insertion of Y0239-19 (VNERK) with T28D/N31H; also called CDR combination variant Y0313-2; Insert-Fab Y0313-2) VH: EVQLVESGGGLVQPGGSLRLSCAASGYDFTHYGMNWVRQAPGKGLEWVGWINTYTGEPTYAADFKRRFTFSLDTSKSTAYLQMNSLRAEDTAVYYCAKYPHYYVNERKSHWYFDVWGQGTL VL: DIQLTQSPSSLSASVGDRVTITCRANEQLSNYLNWYQQKPGKAPKVLIYFTSSLHSGVPSRFSGSGSGTDFTLTISSLQPEDFATYYCQQYSTVPWTFGQGTKVEIKR
